Tested on: purinergic nucleotide P2Y2 receptor
Assay: CPRG assay, MMY9 cells expressing P2Y2 receptor plus Gα subunit
Format: cell-based, human
Set-up: key: weak activation insufficient to carry out curve-fitting was detected; NC: no coupling was detected
Experimental: Assay for combined FUS1-lacZ and FUS1-HIS3 Expression. In vivo assays of reporter gene induction (CPRG assays) were carried out by suspending cells to 0.02 OD600 in 200 μl SC-glucose (2%) lacking tryptophan, uracil and histidine. This medium was supplemented with agonists, and additionally 10 mM 3-aminotriazole and the β-galactosidase (lacZ) substrate chlorophenolred-β-D-galactopyranoside (CPRG; Boehringer) to a concentration of 0.1 mg/ml. To visualise the colour change reaction, the medium was buffered to pH 7 with 0.1 M sodium phosphate. The assay was conducted in a 96-well microtitre plate format. Plates were incubated for 24 hours without agitation, and absorbance at 570 nm was determined using a Victor microtitre plate reader (Wallac). EC50 values (+/−standard error) were estimated by curve-fitting, using the Robosage software package.
This experiment illustrates that, for certain receptors, the efficiency of coupling to the yeast pheromone response pathway can be enhanced by creating chimeras between yeast and mammalian Gα subunits. […] Agonist-dependent activation of FUS1-lacZ was determined by incubating cells in medium supplemented with the chromogenic, cell-permeant β-galacosidase (lacZ) substrate, chlorophenolred-β-D-galactopyranoside (CPRG; Boehringer Mannheim). […]

purinergic nucleotide P2Y2 receptor, sequence (P41231 1-347 limits assumed): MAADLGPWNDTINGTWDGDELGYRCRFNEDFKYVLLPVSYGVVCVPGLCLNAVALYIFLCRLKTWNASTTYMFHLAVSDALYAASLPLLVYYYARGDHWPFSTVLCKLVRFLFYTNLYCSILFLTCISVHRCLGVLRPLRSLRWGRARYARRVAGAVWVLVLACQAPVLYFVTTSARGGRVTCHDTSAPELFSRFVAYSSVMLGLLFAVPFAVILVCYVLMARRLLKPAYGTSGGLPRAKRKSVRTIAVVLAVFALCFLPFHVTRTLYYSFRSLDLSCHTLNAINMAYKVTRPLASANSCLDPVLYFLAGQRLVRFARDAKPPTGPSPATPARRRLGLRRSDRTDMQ

B1: Gpa1p: endogenous yeast Gα subunit, product of the GPA1 gene (protein, UniProt P08539 2-472, looked up)
Guanine nucleotide-binding …: GCTVSTQTIGDESDPFLQNKRANDVIEQSLQLEKQRDKNEIKLLLLGAGESGKSTVLKQLKLLHQGGFSHQERLQYAQVIWADAIQSMKILIIQARKLGIQLDCDDPINNKDLFACKRILLKAKALDYINASVAGGSDFLNDYVLKYSERYETRRRVQSTGRAKAAFDEDGNISNVKSDTDRDAETVTQNEDADRNNSSRINLQDICKDLNQEGDDQMFVRKTSREIQGQNRRNLIHEDIAKAIKQLWNNDKGIKQCFARSNEFQLEGSAAYYFDNIEKFASPNYVCTDEDILKGRIKTTGITETEFNIGSSKFKVLDAGGQRSERKKWIHCFEGITAVLFVLAMSEYDQMLFEDERVNRMHESIMLFDTLLNSKWFKDTPFILFLNKIDLFEEKVKSMPIRKYFPDYQGRVGDAEAGLKYFEKIFLSLNKTNKPIYVKRTCATDTQTMKFVLSAVTDLIIQQNLKKIGII
With B1 the “coupling class where no EC50 could be fitted” value was “weak”.
